Results taken from patent US6794168B1, “Process for oxidising aromatic compounds” (Isis Innovation Limited, priority 1999, dated 2004).
Substitutions are numbered along the chain they refer to. Numbers in names are those of the source.

B1: F87A-Y96F: P450cam mutant (with C334A) (protein, UniProt P00183 2-415, looked up, variant F87A Y96F C334A)
Camphor 5-monooxygenase: TTETIQSNANLAPLPPHVPEHLVFDFDMYNPSNLSAGVQEAWAVLQESNVPDLVWTRCNGGHWIATRGQLIREAYEDYRHFSSECPAIPREAGEAFDFIPTSMDPPEQRQFRALANQVVGMPVVDKLENRIQELACSLIESLRPQGQCNFTEDYAEPFPIRIFMLLAGLPEEDIPHLKYLTDQMTRPDGSMTFAEAKEALYDYLIPIIEQRRQKPGTDAISIVANGQVNGRPITSDEAKRMCGLLLVGGLDTVVNFLSFSMEFLAKSPEHRQELIERPERIPAACEELLRRFSLVADGRILTSDYEFHGVQLKKGDQILLPQMLSGLDERENAAPMHVDFSRQKVSHTTFGHGSHLCLGQHLARREIIVTLKEWLTRIPDFSIAPGAQIQHKSGIVSGVQALPLVWDPATTKAV
B2: F87A-Y96F-V247A: P450cam mutant (with C334A) (protein, UniProt P00183 2-415, looked up, variant F87A Y96F V247A C334A)
Camphor 5-monooxygenase: B1 Camphor 5-monooxygenase with V247A
B3: Y96A: P450cam mutant (with C334A) (protein, UniProt P00183 2-415, looked up, variant Y96A C334A)
Camphor 5-monooxygenase: B1 Camphor 5-monooxygenase with A87F, F96A
B4: Y96F: P450cam mutant (with C334A) (protein, UniProt P00183 2-415, looked up, variant Y96F C334A)
Camphor 5-monooxygenase: B1 Camphor 5-monooxygenase with A87F
B5: F87L-Y96F: P450cam mutant (with C334A) (protein, UniProt P00183 2-415, looked up, variant F87L Y96F C334A)
Camphor 5-monooxygenase: B1 Camphor 5-monooxygenase with A87L
B6: Y96H: P450cam mutant (with C334A) (protein, UniProt P00183 2-415, looked up, variant Y96H C334A)
Camphor 5-monooxygenase: B1 Camphor 5-monooxygenase with A87F, F96H
B7: Y96A-V247L: P450cam mutant (with C334A) (protein, UniProt P00183 2-415, looked up, variant Y96A V247L C334A)
Camphor 5-monooxygenase: B1 Camphor 5-monooxygenase with A87F, F96A, V247L
B8: Y96L-V247A: P450cam mutant (with C334A) (protein, UniProt P00183 2-415, looked up, variant Y96L V247A C334A)
Camphor 5-monooxygenase: B1 Camphor 5-monooxygenase with A87F, F96L, V247A
B9: C334A: P450cam with only the base mutation C334A (protein, UniProt P00183 2-415, looked up, variant C334A)
Camphor 5-monooxygenase: B1 Camphor 5-monooxygenase with A87F, F96Y

Test system: not listed separately
Experiment: Oxidation of halo aromatic compounds by P450cam mutants in vitro, trichlorophenol products
Format: biochemical
Conditions: (nmol product)(nmol P450cam)^−1(min)^−1; trichlorophenol products
Procedure: (§1) 50 mM Tris-HCl buffer pH 7.4 is added to make up the volume.
(§2) Temperature controlled at 30° C., optional.
(§3) The NADH turnover rate could be determined by monitoring the absorbance at 340 nm with time.
(§4) All mutants have C334A. Coupling efficiency is the percentage of NADH consumed which was utilised for product formation, i.e. a percentage of the theoretical maximum efficiency. The product formation rates are given in (nmol product) (nmol P450cam)^−1(min)^−1. The relative amount of product formed in each case is shown. 1,3- and 1,4-dichlorobenzene, 1,2,3- and 1,3,5-trichlorobenzene, 1,2,4,5- and 1,2,3,5-tetrachlorobenzene, and […] and 2,2′,4,5,5′-pentachlorobiphenyl were also found to be oxidised.

Molecule	Product formation rate
B1	3 min⁻¹
B2	7 min⁻¹
B3	33 min⁻¹
B4	22 min⁻¹
B5	8 min⁻¹
B6	1 min⁻¹

Same assay, conditions: percentage of NADH consumed utilised for product formation; trichlorophenol products

Molecule	Coupling Efficiency (%)
B3	14%
B6	3%

Same assay, conditions: substrate not named; all mutants have C334A

Molecule	2,3,6-Trichlorophenol (relative amount of product formed)	3,4,6-Trichlorophenol (relative amount of product formed)
B3	77	23
B6	54	46

Test system: P450cam
Experiment: Oxidation of further halo aromatic substrates by P450cam enzymes
Format: biochemical, Pseudomonas putida
Conditions: substrate of P450cam enzymes
Procedure: as §1, §2, §3, §4

Molecule	found to be oxidised
Clc1cc(Cl)cc(Cl)c1 [1,3,5-trichlorobenzene]	oxidised
Clc1ccc(Cl)c(-c2cc(Cl)c(Cl)cc2Cl)c1 [2,2′,4,5,5′-pentachlorobiphenyl]	oxidised
Clc1c(Cl)c(Cl)c(-c2ccccc2)c(Cl)c1Cl [2,3,4,5,6-pentachlorobiphenyl]	oxidised
Clc1cc(Cl)c(Cl)c(Cl)c1 [1,2,3,5-tetrachlorobenzene]	oxidised
Clc1cccc(Cl)c1 [1,3-dichlorobenzene]	oxidised
Clc1ccc(Cl)cc1 [1,4-dichlorobenzene]	oxidised
Clc1cccc(Cl)c1Cl [1,2,3-trichlorobenzene]	oxidised
Clc1cc(Cl)c(Cl)cc1Cl [1,2,4,5-tetrachlorobenzene]	oxidised

Test system: not listed separately
Experiment: Oxidation of halo aromatic compounds by P450cam mutants in vitro, dichlorophenol products
Format: biochemical
Conditions: (nmol product)(nmol P450cam)^−1(min)^−1; dichlorophenol products
Procedure: as §1, §2, §3, §4

Molecule	Product formation rate
B3	19 min⁻¹
B4	8 min⁻¹
B7	20 min⁻¹
B8	0.7 min⁻¹
B5	5 min⁻¹
B9	0.5 min⁻¹

Same assay, conditions: percentage of NADH consumed utilised for product formation; dichlorophenol products

Molecule	Coupling Efficiency (%)
B3	6%
B8	2%
B9	2%

Same assay, conditions: substrate not named; all mutants have C334A

Molecule	2,3-Dichlorophenol (relative amount of product formed)	3,4-Dichlorophenol (relative amount of product formed)
B3	94	6
B8	90	10
B9	95	5
